Test results reported in publication PMC4139268, “Thermal, Chemical and pH Induced Unfolding of Turmeric Root Lectin: Modes of Denaturation” (PLoS ONE, 2014).

Target: the molecule itself
Assay: SEC; Biogel P-100 column; CLA incubated 5 h at room temperature at pH 7, 5 or 4 (10 mM Na-phosphate or Na-acetate, 150 mM NaCl); mass from a standard curve run at pH 7

B1: Curcuma longa rhizome lectin (natural protein)
chain: KNILLSGETLETGKFLTEGEFTFLMQSDCNLVLYDLNRPIWSSGTIHKGSGCILKMQNDGNLVIYNVTNNAIWASNTGGQQGNYILILQRDRNVVIYSQPIFNTDTAVSKLNSSNLGETGNGGNIAQPENKIAIGASNGHNANILPSGETLPTGKLTLPSEVATETGK
modifications: glycosylated (glycoprotein with about 5.2% covalently bound sugar); sites not stated
For B1, the “stoichiometry N” value was 2.
